The data set is described as follows: soluble fraction after stress (log2 fold change); higher = more stays soluble; pooled small domains, quantitative proteomics. The note with it: stress: 50 degC. The essentials:
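After stress at 50°C, the amount of each protein still soluble was measured. This was done on pooled custom libraries of small protein domains, using high-throughput quantitative proteomics. The figure given is a base-two log fold change and stands for aggregation propensity, with higher values meaning more protein stays in solution.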
Regarding “HMSWAGRRSLAALEARYRDETGISNLKIKHNGVLGYHIEVPSKSADKLMAPDSGFTHRQTLAGAVR”, the “soluble fraction (log2)” value is 0.0529. In the case of “HMPAVGGVVKGAVVSVGRNEVRLDIGGLAIGIIRGPELDKHVDLRIGDEVEATVITLDNEFGELELSL”, the “soluble fraction (log2)” value was -0.72. As for “HMGEYGVLWYLLTKKEAVSAGELKEKLHVVPGRMTDILTALEKKGLIIRQKNKTDKRVVDVVLTKEGEKEA”, the “soluble fraction (log2)” value is -0.471. For the sequence “HMNMVEESVKKSSQWAVFEPNTISTWVKIQAMIENYLYQKWKEGALAGAKPEHAFFVKVGLGETM”, the “soluble fraction (log2)” value worked out at 0.163. For “HMNVQGFVFDLAEPLDKVPSIEGFPLKLEDPLTLVAAVNKDRSINALFAELSKLNIKIKSMRNE” the value was 0.15; for “HMLTDMSKIRKVLKLYGKGNSKLFISTYLSLSRNTVKKYISLFEVSGKTIEEILAKSDSELELLFSG”, -0.919. In the case of “HMKRVTRQRTEILRVIDESERPLGPQEILQAGREAIPSLSIATIYRTLRDLLAEELIKTVALPGDSPRYES” it was -1.31. For “HMENAEALLKKLSGVLSDYEYKMLMLYADGKTPRRIAQETGQSAKSVSNALFRARTKLKELYEDQ” the value was -0.331; for “HMTMGAAEAQALKDEALELYRTGGTQEDVVRAIEMYEQAAEAGNAQAASDLAYLKANGVYETAMNN”, 0.268; for “HMLDPKVFVGKAGINEGIAKLLLQAFDKADLVKVRFTAERDVMETQMQELARLTGSEVIGNVGRTATF”, -0.00291. For the sequence “HMREYEKAVDYVRRMISSGSLNVGDRLPTERELSLELDISRNSTREAMRMLENMGIIVSRHGSGNYISGN”, the “soluble fraction (log2)” value is -0.594.

Turning to “HMSTKRGEILEFLKDFSARKGYAPSVREIMQAVGLKSTASVHYHLSELHKAGLITVDGTKNRAISLA”, the “soluble fraction (log2)” value was -0.149. In the case of “HMKFINISIDKSGNLFINKKSIKFQDLKYNVVNLVDESKNLVVLNADENISHGYVISVLDVLRSIDGLKLA” it was -2.18; in that of “HMQTFGTMIAALRKEQGMTQLELAEKMGVTDKAVSKWERDLSFPDVNSLPKLAEIFHVSVDEL”, -0.229. In the case of “HMEPQLVKSFDVQTELTYDQFLSKYPESHTLGRLLVQPEPIPFEPYKNIPGITPEKLLALHAKHLEAR” it was 0.0728. Take “HMIPDAIDPDGRFKWRAGEAVVGFGRHAGEPLKKIAIENPEFLRWILKADFSTDVKKIASDALKGYFPEK”: the “soluble fraction (log2)” value is -0.23. For “HMGNEMQVPNVAGKTVDEAIEIFNNMGLKVAAENKYAQSDDVKEGDVVKTDPSSGRNVKKGSEITLYISQG” the value was 0.0976; for “HMVNIEAEVGRRLRQLRARRGLSLRALADLSGLNVNTLSLIENSKTSPSVSTLQQLARSLQVPITTFFESD”, -0.447. In the case of “HMGLTLREKMGHVLEMLKGREFLPFVSLFTVEEGRIGVVVTFMSILELVKEGILDLVQTESFGPIHVKAR” it was -0.326; in that of “HMRQGHLDLLRQIHALPPSTREVVYLRAFGGLSFREIGDVLGRTETWARVTFYRGKEALRKG”, 0.0194; in that of “HMSSSYMVRITTSVLNVRKGPGTNYGITTKVKKGEVYTIVAEEKNGNTTWGKLKSGTGYISLGYTER”, -1.29. Consider “HMNQRQLQIKQMLDVAQEVFLKQLKTVFPDVSEMTIRRDLILLEDMGYAVRTHGGAVSINRF”, for which the “soluble fraction (log2)” value is -2.14. In the case of “HMTSPNPLIRSTTPGLETNKKGGIIVDENEMSTRENVFAGGDAVTGAATVILAMGAGKKAAAAIDAKLQN” it was 0.12; in that of “HMDVLSQYGSRGEEVGKIQTRLKSWGYFSGEVTGYYGSQTTEAVKRFQQKHGLSATGVADRKTLELIGIS”, -0.108.

As for “HMKLTNNDFIRLKTFMYNNYGINLENKKTLIETRLAIVVKRLGFNDFKSYIDNLMRDKTGEQASIIVGKLT”, the “soluble fraction (log2)” value is -0.58. Consider “HMTEDELLAQFEEILDGYVGKPGGLIPALQTAQKLFGYLPKRVLQLISMKLDIPYSEVTGVVSFYSFFTTV”, for which the “soluble fraction (log2)” value was -0.0145. As to “HMGNTLAYSEFRQKVQEGAVKQVVLSEDRVTGELTNGDRFTANIVRDPELLKMLNDNNVKYDGKPT”, the “soluble fraction (log2)” value is 0.203. In the case of “HMGDYDHYVVKVEDTLLNWLVTNVTTMSRNKLKDILAGQGIKVNGKITTKYDYPLTPGMKIAISKTKR” it was -0.275. For “HMPLPFSPVMFVGTKSGAQTDLDGNYKIETYYSSDSLKVVVLGYAPLAKKVKQGTTSVVNFELSAAS” the value was 0.113. In the case of “HMNDRLAGMEGQRGEAATNFDQGEGKVKVGDTVWLAKQSDSTVIVEGDQIVVTGSENGLLKVRL” it was -0.165. In the case of “HMAKMPSIIIMKDGVIRTSELEQIERDENWLNEEMKKQHIDNPEDVFLAEFWDGKVNFILQDGKIK”, the “soluble fraction (log2)” value is 0.0716.

Turning to “HMSTGGDLTQRERELLGLMARGLSNQEISKRLTIAMPTVKFHVTNILAKLHADNRTEAVLVALKNKLVAL”, the “soluble fraction (log2)” value was -0.748.

In the case of “HMHHSGLRQSQFDEISRQIRSLLEMESLSLQELKTRMEDVPEEQLTKVVSYLLSEEIIRQENGRLQ”, the “soluble fraction (log2)” value was -0.0768.

In the case of “HMNHAPSLMRKIRRGLKEGRNPDDLLVNAKSISDYYYRSLSFYLLAPHFSSKSKQYKQVISLANS”, the “soluble fraction (log2)” value came to 0.036.

Turning to “HMKPTVKKLLAALPELRSGQPLHLSVATRKLRDAGLLGKNASSPTLFRNYVAQFELIPENQPNAVRYR”, the “soluble fraction (log2)” value is -0.551. In the case of “HMEIEETKKNSRTKIPENFDYKLINGLSNEIRAKLELIRPIDLLQASRIDGMTPAALTLVHLWIKKYSG” it was -0.338; in that of “HMEYKKKIGELLIDGNKKLKAANIDTYILDTQLLLGKVLGKDKLYLITNKDEEVSNFKEREFYSLIEKRI”, 0.00227; in that of “HMAVPFTIDVSQNGRYFIEEDNQVVEVSIGFLEDRFLRIIKSNPDIEVIIRGDAKASYESIAELLAVLQ”, -1.06. “HMAEQVLHQKLAARRKELNSLVAQVARVRGIPHSHVHSGLRREAGGPPLAQATTDQVEARISLARKWLRA”: the “soluble fraction (log2)” value is -0.728.

On to “HMIDDNTIIQIGDSYSKSIRLLGEPIELKNRSLNQKSYFMAVYDFKGRRYRLFFENDVLFDILRD”, for which the “soluble fraction (log2)” value is -1.86. As to “HMYSSASKEEIDQLMKRLILNLDAKGYFWPQDKEKSLKLYLHNLFSKLPLNSSDIRFLHGLIRALSEE”, the “soluble fraction (log2)” value was -1.08. In the case of “HMVPSSHNIAQKVKQIKINDLWLDVRERYIYLKNLYLSHPLEKDHPSFIVYVEAVNQIYNQYF” it was 0.02; in that of “HMSERVVEIDPSQLRPGLFIRLPSGWMNHPFLFNQFRINSAEQVEIIQKLGLKTVQYLPERSSTQALPRA”, -0.499; in that of “HMEMKHKNSQIFQAIKLKHMGFTPTQISEELRVSRTTINHWLTKAQLKDVKWEDIRENSADELVKLLFG”, -0.229. Regarding “HMDTRQFWEQWVADEIRTFEHKDRKQLFGWFEGNKPKLGQMKKLGYGDLLTKVQTSWDEIYQQKE”, the “soluble fraction (log2)” value turned out to be 0.124. For “HMPVSLHEQIQQARIRAEQNVEGISLLLQVNPKYYEQIEAGDVIPDQDLLKRISSLFGWNYHEMLHREKSS” the value was -0.239; for “HMNPHIQFWSLLRRQPDYNSAYKDELKAMFVWQWSGEKTESLNEFYKTDPYRYKSMLMDMRNRAL”, -3.15; for “HMDNWAALLSEREVQVSRLVANGASNKEIADHLAITERTVKAHLTAVFEKLGVRDRLQLSLRVNGL”, -2.01. For “HMKEGGREEMSEIVERYGDERALMANITSVQNLMNNMKWTLDQALDALGIKGKERTLITQQLQ”, the “soluble fraction (log2)” value was -0.147.

On to “HMREIEVNYAAGDSVRVIDGPLAGFIGVVSSVEPDKNKVNVTVSMFGRETPVELELDQVETLD”, for which the “soluble fraction (log2)” value turned out to be 0.159. For “HMTGGMVTYIIEKGEGFFSLERKFGLSENELIKLNPSLKSGLKSEMQINIPKENYDRYVASS” the value was -0.0276; for “HMVGEQISYIPLKFATASEVVKSLTSMFQQQKGIAPIRIVAEERTNAILLLASEADTARVKNLIAMMDKGV”, -0.0246. In the case of “HMEYYEDEELDRFRGRNSDQYSDAEIEEFNEILTTLRSEEVAGWIRSLQLREIALPDELKDDVILLVG” it was -0.804; in that of “HMGVRPAALGFQKVRIEPQVGTFREASGDVITPRGLIHAEWKRDEENALHLHYTLPDGVAYA”, -0.0327. In the case of “HMVLELRIGQIVRGVLLQLVGEREGIVSVGGVPVRARLEAEIPLGRGVMLQVQPGSDANNILLKPV” it was -0.515. As to “HMQVLLTRREKEILKLIAEGLTSAEIGKRLFISTTTVDTHRKHLLEKLKAGNTAILIKTAVQLDLI”, the “soluble fraction (log2)” value was -1.26. In the case of “HMSEEVDVPDLVGMQLEEAEKSLEPLGLKLKIAKEIPNSEFEKGKIVDQKTKAGEKVKTGYTIEVTVSSG” it was -0.267; in that of “HMHSKQRDAIFENLRSRKDHPTAEEIYLSLKPAMPAISLATVYRNLAQLENEGLILRLGSGGSARYDGDT”, -0.441; in that of “HMNRPYVELFSGLGQEEAQQIVQKLQEDEVDYKFSGDSTILVKEDVVDQTKATLVQEGYPKS”, 0.0181. For “HMPETAQLTDIQVSRSQAHTGIFSLHYYLTGTDSRGERVRLEISGDDYTRLSGSSSVTVEYYRHTGRIVRY” the value was -1.55; for “HMDTHRLNYSDFVAEVQAQRVSKVVIDGYTIVGQRTNGETFETVRPALQDPKLVDDLLQNNVIIEGKQPE”, 0.0106; for “HMQDENAVTYLLEIKNADANDIASVLKTLKSPDADVVVYKTLNMIIFTGQGSEINGLVKVARQLDRK”, -0.417. For “HMNETTVPDVINQNISTGKIIIEDADLEYRIQYIPSEKSSSIGTIINSIPIYGKRVKSGTIVDLKVLG” the value was -0.0142. “HMNDTLGVNIKRLRKEKGMTQDEVAKAVYTTRYNILRYESGKMTPSSEVIERLEKALGVPTGSLAQ”: the “soluble fraction (log2)” value is -0.332. In the case of “HMSLTEESAKSLIGLTENEAVKVAAERGWTVRVAMRDGEAFMLTQDYSENRVNLTVMKTLVTAVTI” it was -0.273; in that of “HMPPDLSEAIQKRIEGKTDEALEILRKLYNEYPESTEIITMLGRTLLDAEEYALAAFRLEQALDLGG”, -0.569; in that of “HMGMSQQKQSSTVRIIMQDISDANEGLMKMSQIIDAALAEGISETIVRNAISNLHRGGTIYESQTGTYQW”, -0.359.

As for “HMYHNKFADLAGFIAFNEKNEEIFTFGKYKGQNVKEVFQRDIGYYGWLQNADFPLYTKKVFTAIQLRSR”, the “soluble fraction (log2)” value is -2.16.

For “HMSVLNLQTDIPKKYTDVLGTSVKGRLNTLVHNVIINSVDRPVIQMSEEVHEAMQGLRIFMFENVYRNPV”, the “soluble fraction (log2)” value was found to be 0.0658.
